From the nanobody polyreactivity screen of Harvey et al. (2022)

Test: yeast display, Sf9 membrane polyspecificity reagent, FACS + sequencing; frameworks hold sequencing errors
In short: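 Galactose induction of a Saccharomyces cerevisiae BJ5465 synthetic nanobody display library ran 36–48 hours. The cells were then stained for 1 hour at 4 °C with 10% biotinylated, detergent-solubilized Sf9 membrane reagent, pulled down on streptavidin microbeads and FACS-sorted into low and high (top ~1%) gates on expression and reagent-binding fluorescence. Labels for polyreactivity follow the gate of origin.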

Row | Sequence | polyreactivity (PSR sort gate)
1 | QVQLVESGGGLVQAGGSLRLSCAASGRIYPKYGMGWYRQAPGKERELVAAITSGTSTYYADSVKGRFTISRDNAKNTVYLQMNSLKPEDTAVYYCAARPTDGSGWPYRWTSDYWGQATQVTVSS | low polyreactivity
2 | QVQLVESGGGLVQAGGSLRLSCAASGFTFLAYPMGRYRQAPGKERELVAAISKSGGSTYYADSVKGRFTISRDNAKITVYLQMNSLKPDDTAVYYSNAGRRIKFYGSYDYWGQGSQVTVSS | high polyreactivity
3 | QDQLVESGGGLVQAGGSLRLSCAASGLTYYVYSMGWYRQAPGKERELVARITWSGGSTYYADSVKGRFTISRDNAKNTVYLQMNSVKAEDTAVYYSAAEWSEESDYWGQVTQVTVSS | low polyreactivity
4 | QVQLVESGGGLVQAGGSLRLSCAASGSTFDGNAMGWYRQAPGKERELVAAITWRDGSTSYADSVKGRFTISRDNAKNTVYLQMNSLKPEDTAVYYCAADYEVYQVASAFDYWGQGTQVTVSS | low polyreactivity
5 | QVQVEESGGGFDQAGGSLRLSCAASGSIFYYNAMGWYRQAPGKERELVAAISGRTGSTYYADSVKGRFTISRDNAKNTVYLQMNSLKPEDTAVYYCNALFLGYYYYWGQGTQVTVSS | high polyreactivity
6 | QVQLVESGGGLVQAGGSLRLSCAASGSILRRNAMGWYRPAPGKERELFAGISRGGNTNYADSVNGRFTISRDNAKNTVYLQMNSLKPEDTAVYYCDTDGYGRWGRLTFTYWGQGTQVTVSS | low polyreactivity
7 | QVQLVESGGGLVQAGGSLRLSCAASGRIFSTYAMGWYRQAPGKERELVAAITNSAGSTYYADSVKGRFTISRDNAKNTVYLHMNSLKPEDTALYYCATGWSRISYGFDYWGQGTLVTVSS | low polyreactivity
8 | QVQLVESGGGLLQAGGSLRLSCASSGRIFRWNAMGWYRQAPGKERELVAAISARGGSTYYADSVKGRFTISRDNAKNTVYLQMNSLKPEDTAVYYCAKVSSRGFDYWGQGTQVTVSS | high polyreactivity
9 | QVQLVESGGGLVQAGGSLRLSCAASGIIIRGYAMGLYRQAPGKERELVAGITSGGRTYYADSVKGRFTISRDNAKNTVYLQMNSLKPEDTAVYYCNADAYGDDWKIYDYWGQVTQVTVSS | low polyreactivity
10 | QVQLVESGGGLFQEGGSLRLSCAASGFTFLVYAKGWYRQAPGKERQLVAAITWSGDSTYYADSVKGRFTISRDNAKNTVYLQMNSLKPEDTAFYYCAAAYRYGTLYYYWGQGTQVTVSS | low polyreactivity
11 | QVQLVESCGGLVQAGGSLRLSCAASGSTFRYNAMGWYRQAPGKERELVAAISWSGGSTYYADSVKGRFTISRDNAKNTVYLQMNSLKPEDTAVYYCAKVYFWGALSPDKFDEDYWGQGTQVTVSS | low polyreactivity
12 | QVQLVESGGGLVKAGGILRLICVASGRTFLRYGMGWYRQAPGKERELVAAISIVGNTYYADSVKGRFTISRDNAKNTVYLQMNSLKPEDTAVYYCAAGRRFGRDYWGQGTQVTVSS | high polyreactivity
13 | QVQLVESGGGLVQAGRSLRLSCAASGITFQYYAMGGYRQAPGKERELVAAISSGGSTYYADSVKGRFTISRDNAKNTVYLQMNSLKPEDTAVYYCAAKRVFFGLNYDYWGQGTQVTVSS | high polyreactivity
14 | QVQLVESGGGLVQAGGSLRLSCAASGIISGDYAMGWYRQAPGKERELVARITSGDSTNYADSVKGRFTISRDNAKNTVYLQMNSLKPEDTAVYYCAAKRYVFQNDYWGQGTQVTVSS | low polyreactivity
15 | QVQLVESGRGLVQAGGSRRLSCAASGSIITWNAMARYRQAPGKERELFAAIDWDGGSTYYADSVKGRFTISRDNAKNTVYFQMNSLKPEDTAVYYCAATYGWYTGRYPSGHYYYWGQGTQVTVSS | low polyreactivity
16 | QVQLVESGGGLVQAGGSIRLSCAASASIFQSYAMGWYRQAAGKERELVATITYSAGSTYYSDSVKGRFTITRDNAKNTVYLQMNSLKPEDTAVYYCDARRRGTIKTRMDYWGQGTQVTVSS | high polyreactivity
17 | QVQLVESGGGLVQAGGSLRLSCAASGRTFAYNAMGWYRQAPGKERELVASITSGGSTNYSDSVKGRFTISRDNAKNTVYLQMNSLKPEDTAVYYCNKDGKYHRVLYDYCGQGTQVTVSS | low polyreactivity
18 | QVQLVESGGGLVQAGGSLRLICAASGFTFSGNTMGWYRQAPGKERELVATISRTGGITYYADSVKGRFTISRDNAKNTVYLQMNSLKPEDTAVYYCNRRYYYFVYPDDYWGQGTQVTVSS | high polyreactivity
19 | QVQLVESGGGLVQAGGSLGLSCAASGLTFSRYAMGWYREAPGKEWELVASISQGGGSTYYADSVKGRFTISRDNPKKTVYLQMNSLKPEDTAVYYCIRLTIGSSSYDYWGQGTKVTVSS | high polyreactivity
20 | QVQLVESGGGLVQAGGSLRLSCAASGSIFSPNAMGWNRQAPGKERELVAAISRRGGRTYYADSVKGRFTISRDNAKNTVYFQMNSLKPEDTAVYYCNAVWYSDTYTNPQYDYWGQGTQVTVSS | high polyreactivity
21 | QVQLVESGGGLVQAGGSRRLSCAASGSIFPQYAMGWYRQAPGKERELVAAITWSGSRTRYADSVKGRFTMSRDTAKNTGYLQMNSLKPEDTAVYDCAARFNGQTYYYWGQGTQVTLSS | high polyreactivity
